Test results: publication PMC6344896, “HuR biological function involves RRM3-mediated dimerization and RNA binding by all three RRMs” (Nucleic Acids Research, 2018)

Biological target: the molecule itself
Experiment: SAXS; concentration series in solution without RNA (Trx-RRM3 1.25–10 mg/ml; untagged full-length HuR WT and W261E, lowest 0.5 mg/ml); molecular weights from the Porod volume

B1: Trx-RRM3 (HuR RRM3 fused to the C-terminus of E. coli thioredoxin 1 via a GSAM linker) (domain or fragment, human, UniProt Q15717-1 243-326, looked up)
chain: GWCIFIYNLGQDADEGILWQMFGPFGAVTNVKVIRDFNTNKCKGFGFVTMTNYEEAAMAIASLNGYRLGDKILQVSFKTNKSHK
notes: Human HuR/ELAVL1 (NP_001410.2), third RNA recognition motif; Chain order: E. coli thioredoxin 1, Gly-Ser-Ala-Met, RRM3; Thioredoxin structure 2TRX was used for molecular replacement; also called RRM3-Trx; Trx-RRM3 fusion protein; source: E. coli BL21(DE3), purified; not shown: Trx (E. coli thioredoxin 1, uncleavable GSAM linker), N-terminal, kept
stoichiometry N: 2
